Laboratory results from the DeepSol protein solubility set.

Experiment: soluble on expression in E. coli; label from the status in PepcDB or PDB records

| Sequence | soluble on expression in E. coli |
| --- | --- |
| MSLIDKSSEIARFSGKGILITPKTLEKPLLKWEKLEIILYKDKIVFEFVDKTIEVGVEDIEDVGAELPKKVIDIAKSTLEDITYHSSIIIKSKEFGNVMVGFAPETSIYGKAPIDNFLRKLFYILLNKKEVKILYNAGENSENTKWENGFLTFIKKRIKDGLVTKIEYRLVVEILDNEDSKIYDIFSNIKDVEIEEKDVDGEIEPVLKILQVKDGKDIISYLYTKDKKVRLFILRYMVILLDYKYIGILRYLQETVEEGHHHHHH | soluble |
| MSLSLENFGNFLTLDEKHSFIKKYFKEFYTKDFKLFASKDKHYRTRAELSFYHENDTLFYAMFDPKSKKKYIIEYLDFADEKICAFMPRLLEYLRQDNKLKEKLFGVEFLTTKQELSITLLYHKNIEDIKSNLENLSNILHINLIARSKGKKLIFKTENLRQTLNIQDRKIFYEFNNDCFIQPNTAINEKMITWVCEILNTQKRMDLLELYCGYGNFTLALAPFFFKILATEISKSNINFALKNCELNNTTNIHFARLSSEELSLAIKKEREFFRLKDIRLDDFNFSHVLVDPPRAGLDKSVIDLIKKYGNIIYISCNPMTLKENLKELSLTHRVEEFALFDQFVNTPHLECGVFLSKVEGHHHHHH | soluble |
| MGSDKIHHHHHHMLRGMYTASGAMQALQRQQEMLSNNLANARTPGFRADQASLRTFPEMMIQQSGVNEQSGVRSRGTVGKLATGVFMQAATPNFALGSITETGNATDLQISSLEGAALFTIRHADPATGEEETLYTTNGQFAVGQDGLLRTTENDLVLGDAGQPLNVVNEDFTVSADGAVTDGNGQAIGNLGLVVTNQPETLERTGNGLFRSPDALNGGAIKVDQGVLELGNVEVEQTMTEMNAGLRQFEANQKVIQAYDRTAEKAVSEIGRVR | not soluble |
| MTVIYQTTITRIGASAIDALSDQMLITFREGAPADLEEYCFIHCHGELKGALHPGLQFSLGQHRYPVTAVGSVAEDNLRELGHVTLRFDGLNEAEFPGTVHVAGPVPDDIAPGSVLKFESVKE | not soluble |
| MSLEEETYVVFDVETTGLSAVYDTIIELAAVKVKGGEIIDKFEAFANPHRPLSATIIELTGITDDMLQDAPDVVDVIRDFREWIGDDILVAHNASFDMGFLNVAYKKLLEVEKAKNPVIDTLELGRFLYPEFKNHRLNTLCKKFDIELTQHHRAIYDTEATAYLLLKMLKDAAEKGIQYHDELNENMGQSNAYQRSRPYHATLLAVNSTGLKNLFKLVSLSHIHYFYRVPRIPRSQLEKYREGLLIGSACDRGEVFEGMMQKSPEEVEDIASFYDYLEVQPPEVYRHLLELELVRDEKALKEIIANITKLGEKLNKPVVATGNVHYLNDEGHHHHHH | not soluble |
| MLGVGKIGGAIVKSLLSCGAVVTGTGRRRETLERISRLGAEATVDNRLAAKVSDVVILSVKPYQLPRLLEEIRDVMEGKIVVSVVAGVRLSTLSRALEGSHVYRAMPNINALIGRSTTAVAEYTGDKRASFVESILSCMGSVYWIPEEWMDVWTALVGSMPAYVAVMIDSLTLGGVSAGLPREVAFKAVIDTLGATAEHLGKRDIHPSVLRDEVTTPAGTTIEGLKVIEGEGVDAALIRTVEAAARRAAAIGEAIDNEVRRSLNLRAAALEHHHHHH | not soluble |
| MGSDKIHHHHHHMLSVSSLDGEWNITEVDGQKISTERMPFIGFDVAQKRIYGNSGCNRMMGSFEADSLKPGTLKFGQIGSTRMMCPDMKTEQMVLGALDKVTSFQTVSDKPDVITLCNQDGQPLMTLEKKAAPEVSLSDLSGEWVIELVNGKKIVGTAEVTPFIGFNLDESRIYGNVGCNTINGALMQEDGKPNSLRFDNVATTMMMCPDMETETIVLNALNETKSFSMKDDKVYLLGENGNELLVLKKQ | not soluble |
| MHHHHHHSSGVDLGTENLYFQSMGNKYIQQTKPLTLERTINLYPLTNYTFGTKEPLYEKDSSVAARFQRMREEFDKIGMRRTVEGVLIVHEHRLPHVLLLQLGTTFFKLPGGELNPGEDEVEGLKRLMTEILGRQDGVLQDWVIDDCIGNWWRPNFEPPQYPYIPAHITKPKEHKKLFLVQLQEKALFAVPKNYKLVAAPLFELYDNAPGYGPIISSLPQLLSRFNFIYN | soluble |
| MLNSWPLAKDLQVLVEIVHSGSFSAAAATLGQTPAFVTKRIQILENTLATTLLNRSARGVALTESGQRCYEHALEILTQYQRLVDDVTQIKTRPEGMIRIGCSFGFGRSHIAPAITELMRNYPELQVHFELFDRQIDLVQDNIDLDIRINDEIPDYYIAHLLTKNKRILCAAPEYLQKYPQPQSLQELSRHDCLVTKERDMTHGIWELGNGQEKKSVKVSGHLSSNSGEIVLQWALEGKGIMLRSEWDVLPFLESGKLVQVLPEYAQSANIWAVYREPLYRSMKLRVCVEFLAAWCQQRLGKPDEGYQVM | soluble |
| MGSDKIHHHHHHMLDQQHIQYFKNLVGGEDFFTDLAHLNAYCYDATKERHLPSGVIFPKNEQEISQILKYCNEHRIIVVPRGAGSGFTGGALSVSGGLVLSVEKHLDKILEIDTKNLIARVEPGVINKHFQNEVEKLNLFYPPDPASENQSTLGGNVAENAGGMRAAKYGITKDYVMALRVVLANGEIIRAGKKTIKDVAGFNVAGLMIASEGCLGVISEITLKLLAKPPLKQSAMGVFNHIEDAMNAVYKTMSSGVTPVAMEFLDNLSIKAVEERFSKGLPKDAGAILITQVDGVVKEQIAWQLNEIEKHFKANCCVDFKIAQNEQEEQDLWFSRRNASQSISVYGKKKLNEDVTVPRASLPSLLQEVAKISQKYGFKIPCFGHTGDGNVHVNIMLEDPKRDLEKGHEAMEEIFQAAISLEGTLSGEHGIGLSKAKFMPLAFNHSEMELFRNIKKALDPNNILNPFKMGL | not soluble |
| MAHHHHHHMEGASHEAAEHTSASAMTRKERKKIEKSEKQAEELRQLSKKANAVNGDTDNPFSVTLETDQIAEGSRNITFNKVSVSVNGKTLFKDTTVKLSAGSRYGLMGPNGRGKSTILRLLASRELPVQSNLDLLLVEQEQEFTASELSAVDAVLQSHKKQNACADEAKALGAKAELSEAEMERLHFLEEELDIMGAAQADARARRILFGLGFPTEWHERPTSSFSGGWRKRIALASAVFIEPDVLMLDEPTNHLDLNAVIWLESYLTKAYSEMARRPKTLIVVSHDAGFLDEVCTHMVHVENYMLNYYRGSYSSFDEQLQQRHQELDKKYESVAKTIRDKKRNGMSNAQVEVWIKDQVNSGRLDPLFLEKRRDYTVNFPFPDPPELRDGCVCKLDSVSFNYPGGPVLFQNVSCALWTDSRITLCGPNGIGKSTLLNLMTGVLEPTAGYITLNRQVRIGRYNQHFVDKLPLEKTPVECIQALGIPEEDKARRLLGSFGLEGIVHKNQIATLSGGQKARVAFAAISAESPHFLLFDEPTNHLDVESIDALCTAIRNFKGGVLVVTHDARLIESTEMQIWVAGDKNVMPFNGSLDDYKNVVRAEFEKEEAMRLEERKQLLEHKTEARQLKQSGVADVTTALQEKKEKKQHEHAQGLDAFLTAAAKKKKPKKAKEES | soluble |
| GSHMDPLMQKIDISENPDKIYFIRREDGTVHRGQVLQSRTTENAAAPDEYYVHYVGLNRRLDGWVGRHRISDNADDLGGITVLPAPPLAPDQ | soluble |
| MNILLCCAAGMSSSLIVTKMEKAAEARGIEVKIWAVSGSEVNSHIDEADVLLLGPQVRYLLPKMKELCKGKGVPVDVIQSVHYGLCNGEAILQAALSMKP | not soluble |
| MNRFILSAFLLVAIFAISDAAVAQQQVKDGEKVEIDAFKGAKAIKRTVAGGDQIFHLDGDNKGSFVDAKGKKIESTNYEANNGILIIKKFTKADVGTYSEHPAKNTETKHADGSISAVPGLTLDISLQ | soluble |
| MAHHHHHHMSELQAAAGVFGRGTAAGDAIYRCYARPTKESTLDPELLARLQKMRLEREAAEAALFRPKPVPKSKAMISRPRVGLGRRISEEEIARRRLDALPHKKREESIQRELRAFGRPSLLPPLYKSPPITVAEKERLRQIFQFGELPPKPLNFTGANRVRYALIDRRFRLKDRFETLKKHVDALREELRQLRQQPQKSALPETVADGKGNENEIIPSGAEIIRRFHRRDPVMALERRMLEQELTTSIGEVLQEMKEIDFDLRQLDENEAKRYIPKP | not soluble |
| MSLQVVIKFGGTSVSTRATWNNIAAITQKHLNTGVQPVIVCSALTQISNKLEKAIEAALLDEHHSLFNDIQSSHLNLAEQLEVNHQLIANDLHQLQQWLTGISLLKQAPAKTHAQILSLGELMMTRMGHAFLERHEIKVKWYDARELLTSTPTLGGETMNYLSARCESEYDPGLVEKFLSSGAQAIITQGFFAANPHGETVLLGRGGSDTSAALLAGKLQAASCEIWTDVPGIYTANPHQLPHARLLKQLNYDEAQEIASMGAKVLHPNCIPPVRKANIPMVVKYTHLPEHSGTLITKDIDESAPLIKSIQVKHSILLISIDTLNMWQQVGFLADVFAAFKKHGFSVDLLSSSEFNVTLSLDVNAKIHDRPAINALLDDLNQFGRAKLIEPCSAVSLVGHHIRTVLPHLGPALEVFEAKQVYLMSLASNDLNLTFVVDESHADKLCQRLHHLLIESNPQIFYYSKSWHEEFGKPNVRPTPWWEIERDRLLTTSAIHSPCYVYHSPTQAIRARQLSALESIDSLFYAVKANPFPSILKTLEKEGIGFECVSIQELELVLKLFPNIKKERILFTPNFAPKSEYEFALQTGCYVTIDSLYPLENWPELFKNREVIVRIDPGTGAGHHKHVSTGGNESKFGITQNDISKILSLTKSNHIKVIGLHAHSGSGILSTDLWQQTAVMLASLTDQFPEVRSINLGGGLGIVEKPGQHPIDFAALDAQLMAVKSQYPGLAIWLEPGRFFVAESGVILAKVTQCKEKGKVKFIGIETGMNSLIRPSLYGAYHEIVNLTRLHEEKAGFAHIVGPICESGDTLGYDRLLPVTKEGDVILIANTGAYGHCMSSHYNLRPPAQEIVLEEGHHHHHH | soluble |
| MGSDKIHHHHHHMWQFPLFETILIEQGQAKNISYHQQRYEKSLLKFYPKMKLQPFDLAKIIAKHTALFTHREGLIRCRIDYNHHDYVLQCFPYQQKVYRTFKPVFCDHIDYSLKFSDRTLLNNLLKQKEECDEIMIIRQGKVTDCSIGNLIFRQNNQWITPDKPLLEGTQRAKLLEQKKIIAREIFFEDLAQYEEIRLINAMNGL | not soluble |
| MSFVPCTTAIYAFSKNHQPVRTVQSGETFVIETYDCFQNQITSSETPFDSIDWNHINPATGPIYIEGAEPGDILAVKIEQIRLKGQGVMAVGPGLGVLGDRIPQFEAKMIPVEENRAVFDEHLSIPLNPMIGVIGVAPSGEDVSCGTPGPHGGNMDTKLITTGATVYFPVFVKGALFALGDLHAAMGDGEIGVSGIEISGEVTVTVRVMKGYSLNHPLLQNDDGIATIVSAKTLDEAVKQSVEEMVNLLLPHTPLTLNHLTMVLSAVGQTQISQVVDPLVTARFFVPRFVLEAYGIRLFED | not soluble |
| MAHHHHHHMTSTTQPKWTRLPIRTRPHRNPLAENSDNHPDCPAELQEQCTTLFPGMDNPVITLVDVGCAFGGMLFSLAPDFPDMCMLGLEIRPKVVEFAQNKVMKLREGAATDGTSHHYRNVWFEQLNVMKFGSNCFNKGQLQALFFCYPDPHWKRKNVRRRIISPGLVQEYAYWLKVGGFLFTVSDVEELERWMVTCLDGCPLFRQLSQEELAGNEMVRKMLDYAANSSEDAQRTTRKGLQKHYAVHVRVP | not soluble |
| MGSDKIHHHHHHMTIEMKNNKNNNCNFPTLRFPEFSGEWKKDIIGNVISVKSEKYNPHSNRTEFICVELESISQGTGELLETFNSAEQKSIKNKFSPGTVLFGKLRPYLRKFYLPYFEGVCSSEIWVMRSNKIEPAFLYSFIQTPYFISLANQSSGSKMPRADWGLIETSKIAYPPNSAERVKIGKFLKLIDERIATQNKIIAHLESLIKGLTNQLLIPNSNWQPTTIGQVLTINPGKDYKHLKEGNIPVYGTGGYMLSVNDYLYDGESVCIGRKGTINKPIFLTGKFWTIDTLFYTSNFNSLLPRFGYYLFKTIDWLKYNEASGVPSLSKVSIEKIHISLPSLAIQNSICRLLDSIYDKLALEESVLNNHQTQKAFILQQMFI | not soluble |
